Reference: PMC3136212

biological target: RPA (full-length heterotrimer RPA1/RPA2/RPA3) (human) (UniProt P27694+P15927+P35244); assay: FP; parameters: unit not given here; conditions: 18-carbon spacer (sp18) at 5' end; FP: 0.060 uM FAM-oligo, 10-1500 mM NaCl, room temperature; CD: Buffer A 25 mM Tris pH 7.5, 2 mM MgCl2, 6% glycerol, 1 mM DTT, 100 (or 10) mM …
Sequence (P27694 whole entry, chain 1 of 3): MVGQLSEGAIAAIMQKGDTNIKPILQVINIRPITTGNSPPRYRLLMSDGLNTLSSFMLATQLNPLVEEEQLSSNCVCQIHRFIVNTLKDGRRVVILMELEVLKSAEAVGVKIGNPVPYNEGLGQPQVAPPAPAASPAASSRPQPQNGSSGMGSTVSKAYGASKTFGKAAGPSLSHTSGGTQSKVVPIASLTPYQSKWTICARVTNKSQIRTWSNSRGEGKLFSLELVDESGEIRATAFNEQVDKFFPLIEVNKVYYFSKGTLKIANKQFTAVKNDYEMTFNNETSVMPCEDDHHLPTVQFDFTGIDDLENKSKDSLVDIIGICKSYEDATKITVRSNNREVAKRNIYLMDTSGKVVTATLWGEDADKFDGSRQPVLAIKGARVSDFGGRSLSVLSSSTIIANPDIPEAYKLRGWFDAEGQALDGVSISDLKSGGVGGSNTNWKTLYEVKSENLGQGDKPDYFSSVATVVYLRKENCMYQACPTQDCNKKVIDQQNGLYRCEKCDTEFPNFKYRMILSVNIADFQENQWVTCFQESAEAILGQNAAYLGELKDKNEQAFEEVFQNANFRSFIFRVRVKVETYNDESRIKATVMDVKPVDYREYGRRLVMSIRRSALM
Sequence (P15927 whole entry, chain 2 of 3): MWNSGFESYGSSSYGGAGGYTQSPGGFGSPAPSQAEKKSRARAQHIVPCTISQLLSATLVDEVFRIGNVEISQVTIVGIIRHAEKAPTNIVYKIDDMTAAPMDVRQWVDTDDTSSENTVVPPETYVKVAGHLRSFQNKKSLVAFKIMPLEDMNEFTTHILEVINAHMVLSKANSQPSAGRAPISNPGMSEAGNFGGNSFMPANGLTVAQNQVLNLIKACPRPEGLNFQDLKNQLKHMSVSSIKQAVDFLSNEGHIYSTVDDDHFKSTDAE
Sequence (P35244 whole entry, chain 3 of 3): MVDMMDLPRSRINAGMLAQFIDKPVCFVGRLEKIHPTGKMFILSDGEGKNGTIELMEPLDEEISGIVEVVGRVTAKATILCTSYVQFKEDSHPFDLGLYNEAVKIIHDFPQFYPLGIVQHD

Sequence | Kd
AAAAAAAAAAAAAAAAAAAAAAA [polyA] | 0.07
ATCCCCTTCCCAACCTCACCCAA [Anti (Comp)] | 0.07
TAGGGGAAGGGTTGGAGTGGGTT [Gq23 (FP)] | 0.05
